Assay results published in IntAct's records for PubMed 21376235.

B1: RNA polymerase II-associated protein 1 (Saccharomyces cerevisiae), P38351 (parent)
chain: MSKKQEYIAPIKYQNSLPVPQLPPKLLVYPESPETNADSSQLINSLYIKTNVTNLIQQDEDLGMPVDLMKFPGLLNKLDSKLLYGFDNVKLDKDDRILLRDPRIDRLTKTDISKVTFLRRTEYVSNTIAAHDNTSLKRKRRLDDGDSDDENLDVNHIISRVEGTFNKTDKWQHPVKKGVKMVKKWDLLPDTASMDQVYFILKFMGSASLDTKEKKSLNTGIFRPVELEEDEWISMYATDHKDSAILENELEKGMDEMDDDSHEGKIYKFKRIRDYDMKQVAEKPMTELAIRLNDKDGIAYYKPLRSKIELRRRRVNDIIKPLVKEHDIDQLNVTLRNPSTKEANIRDKLRMKFDPINFATVDEEDDEDEEQPEDVKKESEGDSKTEGSEQEGENEKDEEIKQEKENEQDEENKQDENRAADTPETSDAVHTEQKPEEEKETLQEE
partner: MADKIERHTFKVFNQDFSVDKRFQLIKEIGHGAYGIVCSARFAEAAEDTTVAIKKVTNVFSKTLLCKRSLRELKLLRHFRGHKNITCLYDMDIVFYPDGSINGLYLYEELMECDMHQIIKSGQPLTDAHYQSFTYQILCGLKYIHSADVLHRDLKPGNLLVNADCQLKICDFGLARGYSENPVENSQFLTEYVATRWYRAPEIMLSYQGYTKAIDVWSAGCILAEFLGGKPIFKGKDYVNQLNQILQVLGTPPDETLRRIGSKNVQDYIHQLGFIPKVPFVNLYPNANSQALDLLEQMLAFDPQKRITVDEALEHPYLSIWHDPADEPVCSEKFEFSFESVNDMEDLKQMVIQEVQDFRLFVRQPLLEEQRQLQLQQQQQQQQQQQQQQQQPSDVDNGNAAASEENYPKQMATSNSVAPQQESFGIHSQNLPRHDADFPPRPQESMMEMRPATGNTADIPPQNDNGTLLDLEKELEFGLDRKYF

Variants of: B1
Details: with slt2_yeast SLT2, Q00772

| Variant | effect of a mutation on the interaction |
| --- | --- |
| T191A;S193F | decreasing interaction |
